Drawing on US20200369752A1 (published 2020), this text covers EC50 for three molecules.

B1: Syn7031.50.32 (antibody, V domains shown)
VH: EVQLVETGGGLVQPKGSLKLSCAASGFTFNTNAMNWVRQAPGKGLEWVVRIRTKSNNYATYYADSVKDRFTISRDDSQSMLYLQMNNLKTEDTAMYYCVRGGTGTGAMDYWGQGTSVTVSS
VL: DVVMTQTPLSLPVSLGDQASISCRSSQSLVHSNGNTYLHWCLQKPGQSPKLLIYKVSNRFSGVPDRFSGSGSGTDFTLKISRVEAEDLGVYFCSQSTHVPLTFGAGTKLELK
B2: Syn7012.15.32 (antibody, V domains shown)
VH: B1 VH
VL: NIMMTQSPSSLAVSAGEKVTMSCKSSQSVLYSSNQKNYLAWYQQKPGQSPKLLIYWASTRESGVPDRFTGSGSGTDFTLTISSVQAEDLAVYYCHQYLSSYTFGGGTKLEIK
B3: Syn7009.32.40 (antibody, V domains shown)
VH: B1 VH
VL: B1 VL

By EC50 is commonly meant the concentration that produces a half-maximal response.

In the first experiment the target is human monomeric α-Synuclein (UniProt P37840 1-140). Kind of experiment: sandwich ELISA. (ELISA stands for enzyme-linked immunosorbent assay.)
As to B1, the EC50 came out at 567 nM.

B2 displayed an EC50 of 555 nM.

B3 registered an EC50 of 947 nM.

The target of a further experiment is human fibrillar (PFF) α-Synuclein (UniProt P37840 1-140). As to the kind of experiment: sandwich ELISA.
B1 registered an EC50 of 8.86 nM.

Consider B2, for which the concentration giving a half-maximal response (EC50) stood at 10.6 nM.

Regarding B3, the EC50 is 10.1 nM.
